Laboratory results from patent publication US20140045930A1 (published 2014).

Target: E. coli ribosomal protein L16 (endogenous) (E. coli, UniProt A7ZSK2 1-136)
Test: co-immunoprecipitation with anti-GFP (GFP-nanotrap), SDS-PAGE, identification by LC-MS/MS

B1: GFP-YcfD (N-terminally GFP-tagged YcfD) (other)
chain: MEYQLTLNWPDFLERHWQKRPVVLKRGFNNFIDPISPDELAGLAMESEVDSRLVSHQDGKWQVSHGPFESYDHLGETNWSLLVQAVNHWHEPTAALMRPFRELPDWRIDDLMISFSVPGGGVGPHLDQYDVFIIQGTGRRRWRVGEKLQMKQHCPHPDLLQVDPFEAIIDEELEPGDILYIPPGFPHEGYALENAMNYSVGFRAPNTRELISGFADYVLQRELGGNYYSDPDVPPRAHPADVLPQEMDKLREMMLELINQPEHFKQWFGEFISQSRHELDIAPPEPPYQPDEIYDALKQGEVLVRLGGLRVLRIGDDVYANGEKIDSPHRPALDALASNIALTAENFGDALEDPSFLAMLAALVNSGYWFFEG
notes: also called green fluorescent protein (GFP)-tagged YcfD
- binding result: binds
